± gives the standard deviation of the averaged measurements.
Assays:
Saccharomyces cerevisiae [1] = test: protein stability index of tFT-peptide fusion (C-terminal peptide) (PSI (0-1 scale)); higher = more stable (slower turnover)
Description: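 MPS profiling in S. cerevisiae of the tFT-X12 degron library: putative degron peptides plus stable controls, 12 aa, fused to the C-terminus of a sfGFP-mCherry timer. Cells are FACS-sorted into 8 mCherry/sfGFP bins and deep-sequenced. PSI runs from 0 (unstable) to 1 (stable). Backgrounds are wild type, das1Δ and doa10Δ at 30 °C, and wild type, das1Δ, cdc34-1 and cdc53-1 at 37 °C; 2-3 technical replicates each.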

Saccharomyces cerevisiae [2] = test: as above; details: genetic background: wild type; temperature: 30 C
[3] = genetic background: cdc34-1, temperature: 37 C
[4] = genetic background: cdc53-1, temperature: 37 C
[5] = genetic background: das1 deletion, temperature: 30 C
[6] = genetic background: das1 deletion, temperature: 37 C
[7] = genetic background: doa10 deletion, temperature: 30 C
[8] = genetic background: wild type, temperature: 30 C
[9] = genetic background: wild type, temperature: 37 C
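Note: PSI is a weighted mean of sequencing reads over stability bins, variants kept only with over 10 reads, mCherry proximal and sfGFP distal, peptide attached via GGGS linker.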

Row | Sequence | protein stability index (Saccharomyces cerevisiae [1]; [3]) | protein stability index (Saccharomyces cerevisiae [1]; [4]) | protein stability index (Saccharomyces cerevisiae [1]; [5]) | protein stability index (Saccharomyces cerevisiae [1]; [6]) | protein stability index (Saccharomyces cerevisiae [1]; [7]) | protein stability index (Saccharomyces cerevisiae [1]; [8]) | protein stability index (Saccharomyces cerevisiae [1]; [9]) | protein stability index (Saccharomyces cerevisiae [2])
1 | FACLTPFCLCLT | 0.527 ± 0.016 | 0.564 ± 0.015 | 0.422 ± 0.015 | 0.5742 ± 0.0044 | 0.325 ± 0.005 | 0.349 ± 0.013 | 0.51106 ± 0.0004 | 0.431 ± 0.025
2 | LHIHGAGIVCAG | 0.549 ± 0.026 | 0.584 ± 0.029 | 0.368 ± 0.032 | 0.5788 ± 0.001 | 0.318 ± 0.0044 | 0.374 ± 0.029 | 0.5491 ± 0.0022 | 0.467 ± 0.028
3 | LLFLLSPFNFAV | 0.651 ± 0.035 | 0.726 ± 0.0084 | 0.63 ± 0.022 | 0.737 ± 0.0093 | 0.2535 ± 0.0025 | 0.303 ± 0.017 | 0.524 ± 0.03 | 0.328 ± 0.07
4 | RLSTPFTVNHFI | 0.613 ± 0.031 | 0.732 ± 0.035 | 0.696 ± 0.031 | 0.766 ± 0.0088 | 0.155 ± 0.04 | 0.168 ± 0.044 | 0.374 ± 0.044 | 0.312 ± 0.099
5 | NFCVLLQFCVLV | 0.437 ± 0.023 | 0.477 ± 0.023 | 0.36 ± 0.024 | 0.4832 ± 0.0002 | 0.364 ± 0.017 | 0.36 ± 0.02 | 0.448 ± 0.0074 | 0
6 | PFPRCRLIFFFM | 0.5172 ± 0.0045 | 0.7266 ± 0.0031 | 0.549 ± 0.025 | 0.742 ± 0.043 | 0.106 ± 0.0088 | 0.115 ± 0.017 | 0.139 ± 0.019 | 0.171 ± 0.045
7 | VCVARICIWDFL | 0.505 ± 0.043 | 0.589 ± 0.027 | 0.446 ± 0.035 | 0.594 ± 0.014 | 0.413 ± 0.0074 | 0.438 ± 0.013 | 0.596 ± 0.0092 | 0.51 ± 0.033
8 | PLPSEKAPTLLL | 0.686 ± 0.019 | 0.735 ± 0.01 | 0.637 ± 0.0092 | 0.736 ± 0.036 | 0.636 ± 0.027 | 0.6384 ± 0.0045 | 0.718 ± 0.0072 | 0.583 ± 0.15
9 | LLCLCSLPVFAS | 0.317 ± 0.014 | 0.319 ± 0.029 | 0.26 ± 0.046 | 0.4118 ± 0.0028 | 0.223 ± 0.009 | 0.27 ± 0.018 | 0.368 ± 0.0076 | 0.356 ± 0.016
10 | LLLHFMFSIFWF | 0.3811 ± 0.00039 | 0.375 ± 0.032 | 0.327 ± 0.034 | 0.4583 ± 0.0021 | 0.378 ± 0.011 | 0.324 ± 0.016 | 0.42 ± 0.011 | 0.378 ± 0.023
11 | NNGLLLDILIKA | 0.388 ± 0.034 | 0.399 ± 0.073 | 0.28 ± 0.044 | 0.463 ± 0.021 | 0.248 ± 0.0094 | 0.295 ± 0.028 | 0.4517 ± 0.0037 | 0.364 ± 0.059
12 | GPHATYLYLVLA | 0.199 ± 0.022 | 0.258 ± 0.022 | 0.226 ± 0.039 | 0.34 ± 0.0059 | 0.1579 ± 0.00054 | 0.177 ± 0.018 | 0.22866 ± 0.00017 | 0.2383 ± 0.00092
13 | FCIFAMQICTSA | 0.126 ± 0.013 | 0.173 ± 0.0037 | 0.112 ± 0.033 | 0.221 ± 0.0074 | 0.084 ± 0.015 | 0.108 ± 0.01 | 0.205 ± 0.015 | 0.18 ± 0.017
14 | YVCLVWHRNFFS | 0.617 ± 0.014 | 0.704 ± 0.019 | 0.605 ± 0.011 | 0.73 ± 0.048 | 0.14 ± 0.0063 | 0.155 ± 0.025 | 0.228 ± 0.076 | 0.259 ± 0.0039
15 | IGSFFLFFLLIF | 0.281 ± 0.025 | 0.291 ± 0.029 | 0.3 ± 0.025 | 0.383 ± 0.0054 | 0.354 ± 0.027 | 0.245 ± 0.045 | 0.3726 ± 0.0017 | 0.384 ± 0.02
16 | QCSPGLPHAQGL | 0.692 ± 0.025 | 0.71 ± 0.015 | 0.634 ± 0.024 | 0.733 ± 0.014 | 0.657 ± 0.028 | 0.666 ± 0.039 | 0.708 ± 0.013 | 0.565 ± 0.15
17 | GRVCWVVLAGLV | 0.593 ± 0.04 | 0.591 ± 0.053 | 0.441 ± 0.026 | 0.6202 ± 0.0013 | 0.307 ± 0.01 | 0.341 ± 0.026 | 0.5394 ± 0.0042 | 0.429 ± 0.0095
18 | HPPPPPPPPSLS | 0.673 ± 0.038 | 0.715 ± 0.0098 | 0.666 ± 0.028 | 0.7362 ± 0.0017 | 0.677 ± 0.029 | 0.67 ± 0.013 | 0.7037 ± 0.002 | 0.513 ± 0.062
19 | YVSSFSLVVLLS | 0.425 ± 0.0077 | 0.478 ± 0.024 | 0.377 ± 0.033 | 0.506 ± 0.0069 | 0.108 ± 0.015 | 0.125 ± 0.014 | 0.217 ± 0.017 | 0.228 ± 0.029
20 | VSFLVSIFVSGV | 0.189 ± 0.025 | 0.246 ± 0.036 | 0.216 ± 0.029 | 0.372 ± 0.0078 | 0.2 ± 0.025 | 0.194 ± 0.048 | 0.332 ± 0.015 | 0.303 ± 0.039

Row | Sequence | protein stability index (Saccharomyces cerevisiae [1]; [3]) | protein stability index (Saccharomyces cerevisiae [1]; [4]) | protein stability index (Saccharomyces cerevisiae [1]; [5]) | protein stability index (Saccharomyces cerevisiae [1]; [6]) | protein stability index (Saccharomyces cerevisiae [1]; [7]) | protein stability index (Saccharomyces cerevisiae [1]; [8]) | protein stability index (Saccharomyces cerevisiae [1]; [9]) | protein stability index (Saccharomyces cerevisiae [2])
21 | FCFLLLVSFFFV | 0.234 ± 0.0069 | 0.407 ± 0.21 | 0.252 ± 0.029 | 0.388 ± 0.0052 | 0.211 ± 0.011 | 0.219 ± 0.034 | 0.33 ± 0.014 | 0.31 ± 0.028
22 | LGSYIFVVVIYF | 0.152 ± 0.011 | 0.228 ± 0.0032 | 0.168 ± 0.032 | 0.291 ± 0.0044 | 0.141 ± 0.0079 | 0.143 ± 0.033 | 0.253 ± 0.0056 | 0.283 ± 0.15
23 | VVFVVGAPPVLC | 0.476 ± 0.018 | 0.481 ± 0.036 | 0.359 ± 0.024 | 0.532 ± 0.013 | 0.323 ± 0.016 | 0.365 ± 0.0082 | 0.5068 ± 0.0019 | 0.4834 ± 0.0027
24 | ELDVRPMVFLVA | 0.4192 ± 0.0018 | 0.4521 ± 0.0023 | 0.346 ± 0.038 | 0.4943 ± 0.0028 | 0.295 ± 0.0069 | 0.337 ± 0.027 | 0.457 ± 0.011 | 0.422 ± 0.007
25 | ARTWVVLLICGH | 0.4159 ± 0.0012 | 0.479 ± 0.025 | 0.355 ± 0.032 | 0.563 ± 0.04 | 0.28 ± 0.0056 | 0.328 ± 0.019 | 0.531 ± 0.045 | 0.423 ± 0.033
26 | LICRFLFFVCVG | 0.412 ± 0.024 | 0.451 ± 0.0053 | 0.377 ± 0.023 | 0.507 ± 0.0068 | 0.277 ± 0.011 | 0.278 ± 0.02 | 0.441 ± 0.03 | 0.394 ± 0.04
27 | VLFFCLVIYVGV | 0.187 ± 0.0071 | 0.23702 ± 9.6e-05 | 0.183 ± 0.015 | 0.29 ± 0.035 | 0.141 ± 0.015 | 0.187 ± 0.027 | 0.26 ± 0.0013 | 0.217 ± 0.018
28 | AGAFRIVWWALR | 0.652 ± 0.034 | 0.6935 ± 0.00096 | 0.578 ± 0.027 | 0.711 ± 0.0098 | 0.586 ± 0.02 | 0.578 ± 0.015 | 0.68 ± 0.014 | 0.528 ± 0.073
29 | RTWFTYMSIPVW | 0.196 ± 0.012 | 0.204 ± 0.069 | 0.234 ± 0.026 | 0.341 ± 0.01 | 0.189 ± 0.023 | 0.237 ± 0.026 | 0.311 ± 0.0057 | 0.343 ± 0.024
30 | PWGSHLYYVVCI | 0.168 ± 0.026 | 0.228 ± 0.011 | 0.238 ± 0.03 | 0.3371 ± 0.0028 | 0.183 ± 0.013 | 0.221 ± 0.035 | 0.315 ± 0.016 | 0.339 ± 0.023
31 | CGGLFDVALGVG | 0.457 ± 0.031 | 0.5096 ± 0.0026 | 0.449 ± 0.01 | 0.522 ± 0.011 | 0.477 ± 0.021 | 0.468 ± 0.023 | 0.516 ± 0.0067 | 0.471 ± 0.027
32 | KFRGMTLRNKVC | 0.545 ± 0.041 | 0.73 ± 0.047 | 0.657 ± 0.019 | 0.717 ± 0.017 | 0.093 ± 0.0025 | 0.1 ± 0.04 | 0.224 ± 0.069 | 0.267 ± 0.013
33 | WFVLYAEVMGFW | 0.205 ± 0.041 | 0.325 ± 0.043 | 0.241 ± 0.037 | 0.491 ± 0.09 | 0.207 ± 0.029 | 0.231 ± 0.042 | 0.409 ± 0.024 | 0.349 ± 0.0052
34 | VVGVVVCWGCGW | 0.493 ± 0.02 | 0.555 ± 0.057 | 0.393 ± 0.024 | 0.587 ± 0.0062 | 0.369 ± 0.021 | 0.397 ± 0.018 | 0.535 ± 0.0068 | 0.45 ± 0.023
35 | LSASFYFVFFSN | 0.56 ± 0.013 | 0.6731 ± 0.0018 | 0.506 ± 0.023 | 0.6287 ± 0.006 | 0.155 ± 0.032 | 0.188 ± 0.0085 | 0.383 ± 0.021 | 0.292 ± 0.043
36 | RVLCLVSSLTLF | 0.549 ± 0.013 | 0.592 ± 0.0061 | 0.413 ± 0.027 | 0.612 ± 0.017 | 0.352 ± 0.0058 | 0.388 ± 0.026 | 0.5961 ± 0.00089 | 0.441 ± 0.0073
37 | RVGSSLIVVYCV | 0.452 ± 0.024 | 0.461 ± 0.017 | 0.264 ± 0.034 | 0.502 ± 0.0096 | 0.207 ± 0.0045 | 0.238 ± 0.023 | 0.427 ± 0.018 | 0.337 ± 0.022
38 | WFCYFSLYVFLL | 0.0995 ± 0.02 | 0.149 ± 0.0067 | 0.168 ± 0.027 | 0.24 ± 0.0052 | 0.133 ± 0.012 | 0.105 ± 0.019 | 0.153 ± 0.026 | 0.214 ± 0.095
39 | VVRAVLCVCASV | 0.4577 ± 0.0025 | 0.489 ± 0.0069 | 0.409 ± 0.028 | 0.518 ± 0.0019 | 0.387 ± 0.012 | 0.413 ± 0.021 | 0.489 ± 0.018 | 0.45987 ± 0.00039

— the supplement of paper PMC10724198
